Laboratory results published in publication PMC3590194.

Tested on: bivalirudin (Angiomax), TMR-labeled (synthetic)
Experiment: fluorescence anisotropy
Details: 5 mM Mg2+?; BB = PBS (no MgCl2/CaCl2) with 5 mM MgCl2 (flow cytometry, 1 h incubation; FA buffer not stated in the material); pH and binding temperature not stated

ATCGTCTGCTCCGTCCAATACGTAACATCCCCGTAATACTACTACGGTCGTGCTGGTTTGGTGTGAGGTCGTGC [JPB2]
Kd: 5.99 µM

ATCGTCTGCTCCGTCCAATATATTGTGTGACCCCCCTCTTGTTTTGGTGTGAGGTCGTGC [JPB5]
Kd: 5.76 µM
